Measurements from article PMC3601014, “Blood-brain barrier transport of amyloid beta peptides in efflux pump knock-out animals evaluated by in vivo optical imaging” (Fluids and Barriers of the CNS, 2013).

Experiments:
[1] = tested on: Abcb1 and Abcg2; design: method as in PMID 22391220; conditions: in situ brain perfusion, Abcb1-deficient mice; cited from earlier work
[2] = Western blot analysis of Aβ peptide solution (monomers/dimers); type: physicochemical; conditions: dissolved in 10 mM NaOH, HEPES to pH 8.0, data not shown
Procedure: Aβ1-40 peptide used in this study for optical imaging/tracking is the most abundant Aβ peptide found in the cerebral vasculature and is more soluble than Aβ1-42 peptide. Aβ1-40 peptides (1 mg/vial) were dissolved in 250 μL of 10 mM NaOH, and then 12.5 μL of 1 M HEPES [4-(2-hydroxyethyl)-1-piperazineethanesulfonic acid] was added to bring the pH to 8.0. The peptides were divided into 2 tubes (0.5 mg/tube) and kept at −80°C. Because Aβ peptides are commonly present as beta sheet structure in solution, Western blot analyses of the mixtures were performed, and the majority of the peptides (>95%) were monomers with a small proportion of dimers (data not shown). Aβ1-40 or scrambled Aβ40-1 peptides (0.5 mg, molecular weight 4329.86D) were labeled with the near-infrared fluorescent dye Cy5.5 (molecular weight 1128.42D) using the labeling kit (Cy5.5™ Mono NHS ester) as per manufacturer’s instructions.

[3] = tested on: mdr-1 P-glycoprotein/Abcb1; assay: Time-domain in vivo optical imaging of head ROI, Abcb1-KO mice; design: species or system mouse; conditions: i.v. injection, imaged 2–8 h, data not shown
Description: (§1) The experiments with animals have been approved by the Animal Care Committee of the National Research Council of Canada - Ottawa (NRC). Wild-type (wt), mdr-1a/b (Abcb1a/b) knockout (Abcb1^KO), and Abcg2^-KO mice of FVB background were purchased from the Taconic Farms Inc (New York, USA) and maintained in the NRC Animal Facility at Ottawa. Pairs of adult wild-type mice and Abcb1^-KO and pairs of adult wild-type and Abcg2^-KO mice of the same body weight and same sex were matched for injections and imaging experiments. After initial testing of fluorescence signal with various injected doses of Cy5.5-labeld Aβ peptides, the optimal dose selected for the experiments was 100 μg of labelled peptide in 200-μL volume. […]
(§2) Briefly, each animal was positioned on a platform (dorsal side facing up) that was then placed on a heated plate (at 36°C) in the imaging system. […] The fluorescence emission at 700 nm was collected by a highly sensitive photomultiplier tube offset by 3 mm for diffuse optical topography reconstruction. […] A pulsed light source and time-resolved detection allows the system to resolve the nanosecond timescale of fluorescence emission. […] The data were thus recorded as TPSF and the images were reconstructed as fluorescence concentration maps. […] Brains were then extracted and scanned ex-vivo for fluorescence concentration

[4] = no reference given; cited from earlier work
Description: To enable prospective in vivo optical imaging of the distribution of peripherally-injected Aβ peptides, the peptides were labeled with the near-infrared fluorescent dye Cy5.5. Since the principal aim of the present study was to monitor brain distribution of Cy5.5-labeled Aβ peptide in mice lacking major ABC transporters, the fluorescent tracer itself should not be the substrate for these transporters. To compare the permeability of BBB for Cy5.5 in wild-type, Abcb1^-KO and Abcg2^-KO animals, equal amounts of Cy5.5 tracer were intravenously injected into two pairs of wild-type and knockout mice ...

[5] = Time-domain in vivo optical imaging of head ROI, wild-type mice; design: species or system mouse; conditions: i.v. injection, imaged 2–8 h; wild-type and KO mice
Description: as §1, §2

[6] = biological target: T1, Abcg2 (Mus musculus, UniProt Q7TMS5); assay: Time-domain in vivo optical imaging of head ROI, Abcg2-KO mice; conditions: i.v. injection, imaged 2–8 h, 4 animals per group
T1 construct: five pairs of adult wild-type and Abcg2^-KO mice were intravenously injected via the tail vein; tissue Taconic Farms Inc; host or cells: living FVB mice (head ROI / brain, blood-brain barrier)
T1 sequence (Q7TMS5 1-657): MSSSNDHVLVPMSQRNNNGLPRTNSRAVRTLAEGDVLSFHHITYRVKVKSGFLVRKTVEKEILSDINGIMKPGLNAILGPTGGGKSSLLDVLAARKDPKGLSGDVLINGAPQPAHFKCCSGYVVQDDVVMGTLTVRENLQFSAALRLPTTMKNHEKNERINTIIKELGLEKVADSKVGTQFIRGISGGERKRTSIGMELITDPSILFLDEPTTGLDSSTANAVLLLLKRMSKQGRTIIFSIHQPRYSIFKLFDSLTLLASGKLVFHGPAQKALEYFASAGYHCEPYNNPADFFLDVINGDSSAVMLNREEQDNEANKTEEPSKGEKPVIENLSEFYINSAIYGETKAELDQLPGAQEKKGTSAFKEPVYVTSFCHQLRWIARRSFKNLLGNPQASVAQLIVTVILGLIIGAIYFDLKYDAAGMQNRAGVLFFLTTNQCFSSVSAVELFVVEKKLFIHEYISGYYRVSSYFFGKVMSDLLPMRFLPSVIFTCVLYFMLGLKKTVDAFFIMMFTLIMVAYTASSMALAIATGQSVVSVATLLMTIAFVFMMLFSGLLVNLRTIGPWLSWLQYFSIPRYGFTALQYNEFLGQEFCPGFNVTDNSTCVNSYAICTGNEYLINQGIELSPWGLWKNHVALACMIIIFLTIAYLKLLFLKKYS
Description: as §1, §2

[7] = Aβ immunohistochemistry in brain sections (6E10 antibody); type: in vivo, mouse; conditions: 100 μg i.v., brains collected 8 h post-injection; wild-type and Abcg2-KO mice; 3 animals per group
Description: The sections were also counter-stained with fluorescein-labeled lectin, Ulex europeaus agglutinin (UEA-I), as described to visualize cerebral vessels.

[8] = Aβ-Cy5.5 conjugate stability in serum; type: in vitro ADME, bovine; conditions: 1:8 v/v, ~1 μg Aβ, 37°C, 0–8 h, Tricine-SDS-PAGE, optical imaging and 6E10 immunoblot
Procedure: To evaluate Aβ-Cy5.5 conjugate stability in serum, the labeled peptide (5-μL volume containing ~1 μg Aβ) was added to either 35 μL of (non-inactivated) FBS or 35 μL of 1 × PBS (1: 8 dilution) and incubated at 37°C for 0, 0.5, 1, 2, 4, 6, and 8 hours, respectively. The peptides (4 μL) from each of the above reactions (40 μL/reaction) were added to the loading buffer, boiled for 10 min, and resolved on a 16% Tricine-SDS-PAGE as described. The tricine-SDS-PAGE gel was scanned in the optical imager; the peptides in the gel were then transferred to a PVDF membrane for immuno-blotting. A mouse monoclonal anti-human Aβ antibody 6E10 (1:1000 dilution) and the secondary HRP-conjugated donkey anti-mouse IgG antibody (1:5000 dilution) were used for immunodetection. ECL plus detection reagents were applied to the blots and the blots were exposed to autoradiography films.

[9] = Serial whole-body imaging (biodistribution and systemic elimination); type: in vivo, mouse; conditions: 100 μg i.v.; wild-type, Abcg2-KO and Abcb1-KO mice
Procedure: The animals were anesthetized with inhaled isoflurane (4% for induction and 1.5% for maintenance) and the fur was shaved from the head and dorsal side of the body. The labeled peptides (100 μg) or Cy5.5 free dye (~78 μg) were injected intravenously (i.v.) via the tail vein. The animals were imaged at 2, 4, 6, and 8 h post-injection using the time-domain optical imager eXplore Optix 670 (GE Healthcare Systems/ART Inc). The imaging protocols were described in detail previously.
Briefly, each animal was positioned on a platform (dorsal side facing up) that was then placed on a heated plate (at 36°C) in the imaging system. The whole-body scan or selected region of interest (ROI) scan (i.e., head) was performed as described. […] The fluorescence emission at 700 nm was collected by a highly sensitive photomultiplier tube offset by 3 mm for diffuse optical topography reconstruction. […] A pulsed light source and time-resolved detection allows the system to resolve the nanosecond timescale of fluorescence emission. […] The data were thus recorded as TPSF and the images were reconstructed as fluorescence concentration maps. Average fluorescence concentration data from ROI placed around the heads were subsequently analyzed using the software ART Optix Optiview (ART Inc., Montreal, QC, Canada). […] Brains were then extracted and scanned ex-vivo for fluorescence concentration […]

[10] = in vivo, cited from earlier work
Procedure: Head ROI imaging protocols were initiated 2 hours after tracer injection, allowing 3–4 circulation half-lives; therefore, measured head fluorescence concentration was primarily indicative of the brain-accumulated/retained tracer, with small contribution of circulating tracer.

COc1cc2c(cc1OC)CN(CCc1ccc(NC(=O)c3cccc4c(=O)c5cccc(OC)c5[nH]c34)cc1)CC2 [GF120918]
Effect on brain uptake of [3H]-Aβ1-40 [1]: strongly enhanced

Aβ1-40: Synthetic human Aβ1-40 peptide purchased from Biopeptides Co.
Proportion of peptide present as monomers [2]: > 95%

Cy5.5
Head ROI fluorescence, wild-type versus Abcb1-KO [3]: not different | Plasma half-life [4]: about 30 min | Time in which majority of the dye is cleared from the body [4]: 2 h | Fluorescence in the head ROI after circulation time [5]: close to background | Head ROI fluorescence, wild-type versus Abcg2-KO [6]: not different

Cy5.5-labeled Aβ1-40: Synthetic human Aβ1-40 peptide labeled with the near-infrared fluorescent dye Cy5.5 (Mono NHS ester)
Immunoreactive Aβ in brain sections [7]: detected | Stability of conjugate in PBS ([8]; 1 × PBS): no appreciable reductions of intact Aβ peptide bands | Stability of conjugate in serum ex vivo ([8]; non-inactivated FBS): mostly intact in the serum ex vivo up to 8 hours | Whole-body elimination of fluorescence [9]: almost complete disappearance of fluorescence from the body between 2 h and 4 h after injection

[^123I]-Aβ1-40: intracerebrally microinfused 123I-labeled Aβ1-40, literature SPECT study
Brain clearance short t1/2 (bi-phasic) ([10]; monkey): 1.1 ~ 2.7 hours

[^125I]-Aβ1-40: brain-injected 125I-labeled Aβ1-40 peptide, literature
Brain clearance t1/2 [10]: 25 min
